Here are results for one molecule from paper doi:10.1101/2024.01.08.574761 (bioRxiv, 2024).

This assay concerns the target Claspin C-terminal polypeptide #18 (897-1339aa), 3x Flag, dephosphorylated with λPPase (human, UniProt Q9HAW4 897-1339, dephosphorylated with λPPase). Nature of the assay: native gel or EMSA. (In EMSA bound probe runs differently from free probe, usually more slowly.)

Chain of Claspin C-terminal polypeptide #18 (897-1339aa), 3x Flag, dephosphorylated with λPPase (Q9HAW4 897-1339): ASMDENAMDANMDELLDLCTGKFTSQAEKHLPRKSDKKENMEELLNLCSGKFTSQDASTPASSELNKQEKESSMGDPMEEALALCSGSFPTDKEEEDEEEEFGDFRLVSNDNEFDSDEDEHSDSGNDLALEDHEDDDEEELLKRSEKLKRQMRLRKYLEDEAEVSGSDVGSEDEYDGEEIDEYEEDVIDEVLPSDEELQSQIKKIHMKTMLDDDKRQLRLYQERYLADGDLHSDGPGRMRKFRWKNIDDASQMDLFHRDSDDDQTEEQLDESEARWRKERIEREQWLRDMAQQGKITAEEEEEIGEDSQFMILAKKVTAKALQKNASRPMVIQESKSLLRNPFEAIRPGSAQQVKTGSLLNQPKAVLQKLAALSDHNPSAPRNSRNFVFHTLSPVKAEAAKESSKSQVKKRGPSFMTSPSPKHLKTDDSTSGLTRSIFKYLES

B1: Claspin N-terminal polypeptide #2 (1-350aa), dephosphorylated with λPPase (domain or fragment)
chain: MTGEVGSEVHLEINDPNVISQEEADSPSDSGQGSYETIGPLSEGDSDEEIFVSKKLKNRKVLQDSDSETEDTNASPEKTTYDSAEEENKENLYAGKNTKIKRIYKTVADSDESYMEKSLYQENLEAQVKPCLELSLQSGNSTDFTTDRKSSKKHIHDKEGTAGKAKVKSKRRLEKEERKMEKIRQLKKKETKNQEDDVEQPFNDSGCLLVDKDLFETGLEDENNSPLEDEESLESIRAAVKNKVKKHKKKEPSLESGVHSFEEGSELSKGTTRKERKAARLSKEALKQLHSETQRLIRESALNLPYHMPENKTIHDFFKRKPRPTCHGNAMALLKSSKYQSSHHKEIIDT
modifications: dephosphorylated with λPPase
Turning to B1, the binding result is given as “binds”.
